Assay results taken from the supplement of paper PMC7877785.
± gives the uncertainty stated by the source.

Experiment: self-splicing fitness, log relative to wild type (ln ratio); higher = more splicing; Tetrahymena group I intron in knt gene, E. coli kanamycin selection, DiMSum; sequences stand for … in CUCUCU…GGAGGGAAAAGUUAUCAGGCAUGCACCUGGUAGCUAGUCUUUAAACCAAUAGAUUGCAUCGGUUUAAAAGGCAAGACCGUCAAAUUGCGGGAAAGGGGUCAACAGCCGUUCAGUACCAAGUCUCAGGGGAAACUUUGAGAUGGCCUUGCAAAGGGUAUGGUAAUAAGCUGACGGACAUGGUCCUAACCACGCAGCCAAGUCCUAAGUCAACAGAUCUUCUGUUGAUAUGGAUGCAGUUCACAGACUAAAUGUCGGUCGGGGAAGAUGUAUUCUUCUCAUAAGAUAUAGUCGGACCUCUCCUUAAUGGGAGCUAGCGGAUGAAGUGAUGCAACACUGGAGCCGCUGGGAACUAAUUUGUAUGCGAAAGUAUAUUGAUUAGUUUUGGAGUACUCGUGGUCG
Procedure, shortened: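 Library with all eight P1ex-region intron nucleotides randomised, intron inside the knt kanamycin-resistance gene on pET-22b(+), in E. coli BL21(DE3). Cells grew overnight at 37°C or 30°C on LB agar with or without 25 μg/mL kanamycin (plus 100 μg/mL carbenicillin, 50 μM IPTG, 0.2% rhamnose), in six replicate transformations. Pooled colonies were amplicon-sequenced on Illumina HiSeq 2500. DiMSum fitness is the error-weighted combination of wild-type-normalised replicate fold changes, kanamycin versus none.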

Row | Sequence | self-splicing fitness (ln) (30 °C) | self-splicing fitness (ln) (37 °C)
1 | CAGAAGCAAUAUUACGGUGA | -2.21 ± 0.096 | -1.13 ± 0.1
2 | CAGAAGCAAUAUUACGGUUU | -2.93 ± 0.093 | -2.83 ± 0.12
3 | CAGAAGCAAUAUUACGUACC | -2.33 ± 0.24 | -1.55 ± 0.27
4 | CAGAAGCAAUAUUACGUAGC | -3.8 ± 0.27 | -3.32 ± 0.28
5 | CAGAAGCAAUAUUACGUCCC | -2.92 ± 0.3 | -1.49 ± 0.28
6 | CAGAAGCAAUAUUACGUCGG | -1.61 ± 0.14 | -0.979 ± 0.2
7 | CAGAAGCAAUAUUACGUCUG | -3.35 ± 0.16 | -3.09 ± 0.21
8 | CAGAAGCAAUAUUACGUCUU | -1.7 ± 0.089 | -0.306 ± 0.11
9 | CAGAAGCAAUAUUACGUUAC |  | -2.72 ± 0.2
10 | CAGAAGCAAUAUUACGUUAU | -3.44 ± 0.35 | -2.75 ± 0.28
11 | CAGAAGCAAUAUUACGUUUA | -3.13 ± 0.18 | -1.95 ± 0.12
12 | CAGCAGCAAUAUUACGAAUU | -4.16 ± 0.27 | -2.23 ± 0.23
13 | CAGCAGCAAUAUUACGAGCC |  | -1.48 ± 0.23
14 | CAGCAGCAAUAUUACGAUGU | -4.21 ± 0.22 | -2.6 ± 0.15
15 | CAGCAGCAAUAUUACGAUUG | -2.36 ± 0.093 | -0.731 ± 0.09
16 | CAGCAGCAAUAUUACGCACU | -0.834 ± 0.1 | -1.8 ± 0.12
17 | CAGCAGCAAUAUUACGCCCU | -1.89 ± 0.1 | 0.0797 ± 0.13
18 | CAGCAGCAAUAUUACGCCGG | -0.792 ± 0.09 | -0.31 ± 0.098
19 | CAGCAGCAAUAUUACGCCUG | -3.7 ± 0.22 | -2.35 ± 0.21

Row | Sequence | self-splicing fitness (ln) (30 °C) | self-splicing fitness (ln) (37 °C)
20 | CAGCAGCAAUAUUACGCGAU | -3.91 ± 0.22 | -1.83 ± 0.17
21 | CAGCAGCAAUAUUACGCGGC | -4.03 ± 0.27 | -2.95 ± 0.18
22 | CAGCAGCAAUAUUACGCUAU | -2.47 ± 0.27 | -2 ± 0.18
23 | CAGCAGCAAUAUUACGCUCG | -1.95 ± 0.16 | -0.385 ± 0.21
24 | CAGCAGCAAUAUUACGCUGA | -3.02 ± 0.22 | -2.09 ± 0.18
25 | CAGCAGCAAUAUUACGGAGG | -1.19 ± 0.082 | -0.627 ± 0.12
26 | CAGCAGCAAUAUUACGGCAU | -0.874 ± 0.074 | -0.81 ± 0.096
27 | CAGCAGCAAUAUUACGGCCC | -0.505 ± 0.15 | -0.0529 ± 0.23
28 | CAGCAGCAAUAUUACGGGCA | -2.11 ± 0.095 | -1.07 ± 0.099
29 | CAGCAGCAAUAUUACGGGUU | -4.98 ± 0.26 | -1.6 ± 0.13
30 | CAGCAGCAAUAUUACGGUUU | -0.8 ± 0.062 | -0.225 ± 0.084
31 | CAGCAGCAAUAUUACGUAAC | -4.17 ± 0.39 | -2.88 ± 0.32
32 | CAGCAGCAAUAUUACGUACC | -3.85 ± 0.16 | -2.46 ± 0.16
33 | CAGCAGCAAUAUUACGUACU | -2.54 ± 0.24 | -2.5 ± 0.32
34 | CAGCAGCAAUAUUACGUAGG | -0.47 ± 0.063 | -0.331 ± 0.094
35 | CAGCAGCAAUAUUACGUCGG | -0.346 ± 0.063 | -0.0699 ± 0.09
36 | CAGCAGCAAUAUUACGUGAA | -2.06 ± 0.075 | -0.955 ± 0.09
37 | CAGCAGCAAUAUUACGUGAC | -3.41 ± 0.24 | -1.86 ± 0.19
38 | CAGCAGCAAUAUUACGUGAG | -0.675 ± 0.06 | -0.267 ± 0.086
